Laboratory results: IntAct's records for PubMed 16839886

B1: Guanine nucleotide-binding protein alpha-1 subunit (Saccharomyces cerevisiae), P08539 (parent)
chain: MGCTVSTQTIGDESDPFLQNKRANDVIEQSLQLEKQRDKNEIKLLLLGAGESGKSTVLKQLKLLHQGGFSHQERLQYAQVIWADAIQSMKILIIQARKLGIQLDCDDPINNKDLFACKRILLKAKALDYINASVAGGSDFLNDYVLKYSERYETRRRVQSTGRAKAAFDEDGNISNVKSDTDRDAETVTQNEDADRNNSSRINLQDICKDLNQEGDDQMFVRKTSREIQGQNRRNLIHEDIAKAIKQLWNNDKGIKQCFARSNEFQLEGSAAYYFDNIEKFASPNYVCTDEDILKGRIKTTGITETEFNIGSSKFKVLDAGGQRSERKKWIHCFEGITAVLFVLAMSEYDQMLFEDERVNRMHESIMLFDTLLNSKWFKDTPFILFLNKIDLFEEKVKSMPIRKYFPDYQGRVGDAEAGLKYFEKIFLSLNKTNKPIYVKRTCATDTQTMKFVLSAVTDLIIQQNLKKIGII
partner: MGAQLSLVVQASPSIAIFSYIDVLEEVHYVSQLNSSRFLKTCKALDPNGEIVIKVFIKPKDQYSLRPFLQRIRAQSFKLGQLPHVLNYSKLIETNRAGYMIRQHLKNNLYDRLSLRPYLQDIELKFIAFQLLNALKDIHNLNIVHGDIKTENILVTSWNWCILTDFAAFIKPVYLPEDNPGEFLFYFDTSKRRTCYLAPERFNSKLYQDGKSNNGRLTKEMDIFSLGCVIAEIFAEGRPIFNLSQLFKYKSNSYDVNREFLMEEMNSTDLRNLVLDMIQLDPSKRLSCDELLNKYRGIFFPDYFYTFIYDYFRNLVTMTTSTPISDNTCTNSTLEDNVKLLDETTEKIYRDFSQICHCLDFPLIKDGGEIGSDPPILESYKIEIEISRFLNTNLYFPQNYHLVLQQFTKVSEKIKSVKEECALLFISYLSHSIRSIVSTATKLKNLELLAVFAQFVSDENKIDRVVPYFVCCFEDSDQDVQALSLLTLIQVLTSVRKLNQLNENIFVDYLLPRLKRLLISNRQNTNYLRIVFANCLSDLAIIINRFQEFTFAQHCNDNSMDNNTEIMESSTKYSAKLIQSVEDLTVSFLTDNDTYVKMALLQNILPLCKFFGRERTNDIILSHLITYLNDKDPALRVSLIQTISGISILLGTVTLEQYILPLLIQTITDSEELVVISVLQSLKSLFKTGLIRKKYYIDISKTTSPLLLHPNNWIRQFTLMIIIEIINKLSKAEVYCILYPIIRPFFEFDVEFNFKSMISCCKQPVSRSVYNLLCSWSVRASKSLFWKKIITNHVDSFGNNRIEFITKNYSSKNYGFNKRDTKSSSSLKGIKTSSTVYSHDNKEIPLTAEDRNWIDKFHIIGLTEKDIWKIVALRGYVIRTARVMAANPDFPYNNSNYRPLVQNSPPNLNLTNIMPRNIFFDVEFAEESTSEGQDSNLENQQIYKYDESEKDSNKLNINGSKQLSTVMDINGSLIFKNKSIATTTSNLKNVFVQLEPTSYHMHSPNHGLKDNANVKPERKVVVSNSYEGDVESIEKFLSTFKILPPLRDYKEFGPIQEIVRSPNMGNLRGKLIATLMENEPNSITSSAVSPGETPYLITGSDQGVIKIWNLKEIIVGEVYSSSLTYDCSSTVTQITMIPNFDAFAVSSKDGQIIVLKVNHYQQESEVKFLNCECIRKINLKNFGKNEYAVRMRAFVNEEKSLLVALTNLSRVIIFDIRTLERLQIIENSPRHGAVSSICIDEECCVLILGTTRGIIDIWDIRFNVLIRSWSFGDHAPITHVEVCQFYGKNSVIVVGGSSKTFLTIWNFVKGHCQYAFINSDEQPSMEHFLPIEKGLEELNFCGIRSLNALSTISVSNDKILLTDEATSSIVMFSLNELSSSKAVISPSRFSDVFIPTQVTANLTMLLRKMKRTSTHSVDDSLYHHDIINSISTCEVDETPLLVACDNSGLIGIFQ

Variants of: B1
Conditions: with vps15_yeast VPS15, P22219
For MGCTVSTQTIGDESDPFLQNKRANDVIEQSLQLEKQRDKNEIKLLLLGAGESGKSTVLKQLKLLHQGGFSHQERLQYAQVIWADAIQSMKILIIQARKLGIQLDCDDPINNKDLFACKRILLKAKALDYINASVAGGSDFLNDYVLKYSERYETRRRVQSTGRAKAAFDEDGNISNVKSDTDRDAETVTQNEDADRNNSSRINLQDICKDLNQEGDDQMFVRKTSREIQGQNRRNLIHEDIAKAIKQLWNNDKGIKQCFARSNEFQLEGSAAYYFDNIEKFASPNYVCTDEDILKGRIKTTGITETEFNIGSSKFKVLDAGGLRSERKKWIHCFEGITAVLFVLAMSEYDQMLFEDERVNRMHESIMLFDTLLNSKWFKDTPFILFLNKIDLFEEKVKSMPIRKYFPDYQGRVGDAEAGLKYFEKIFLSLNKTNKPIYVKRTCATDTQTMKFVLSAVTDLIIQQNLKKIGII [Q323L], the “effect of a mutation on the interaction” value was “decreasing interaction”.
